Results published in patent US20240294644A1 (BLUEFIN BIOMEDICINE, published 2024).
Positions count from the first letter of the chain named.

B1: hu6D9_57A3 (antibody, V domains shown)
VH: QVQLVESGGGVVQPGRSLRLSCAVSGFSLTSYGVQWVRQAPGKGLEWLGVIWSSGSTDYNAAFLSRLTISKDNSKNTVYFQMNSLRAEDTAVYYCARDVTTIVEGFAHWGQGTLVTVSS
VL: DIQMTQSPSSLSASVGDRVTITCKASEKVGTYVSWYQQKPGKAPKLLIYGASNRYTGVPSRFSGSGSGTDFTLTISSLQPEDFATYYCGQTYSYPFTFGQGTKLEIK
notes: Humanized 6D9
B2: hu6D9_57A5 (antibody, V domains shown)
VH: B1 VH with G49A
VL: B1 VL
notes: Humanized 6D9
B3: hu6D9_66B1 (antibody, V domains shown)
VH: B1 VH with S28T, L29F, T30S
VL: B1 VL
notes: Humanized 6D9
B4: hu6D9_57A4 (antibody, V domains shown)
VH: B1 VH with G9P, G49A, N76S
VL: B1 VL
notes: Humanized 6D9
B5: hu6D9_66C2 (antibody, V domains shown)
VH: B1 VH with Q1E, V11L, R16G, N73T
VL: B1 VL with G66R, L104V
notes: Humanized 6D9
B6: 12B5_44B1 (antibody, V domains shown)
VH: QVQLVQSGAEVKKPGSSMKVSCKASGDTFSSYAISWVRQAPGQGLEWMAGIIPVFGTAHNAQKFQGRVTITADKSTSTAYMELSSLRSEDTAVYYCTRGGPYFDYWGQGTLVTVSS
VL: EIVMTQSPATLSVSPGERAALSCRASQSVSSNLAWYQQKPGQAPRLLIYGVSTRATGIPDRFNGSGSGTEFTLTISSLQSEDFGAYYCQQYKKWPFIFGPGTKLEIK
notes: Fully human antibody
B7: 14D6_60B5 (antibody, V domains shown)
VH: QVQLVHSGAEVKRPGSSVKVSCKASGGTFSSYAISWVRQAPGQGLEWMGGIIPIFGIANYAQKFQGRVTIIADKSTRTAYMELSSLRSEDTAVYYCARGGPYFDYWGQGILVTVSS
VL: B6 VL with A20T, V51A, D60A, N63S, G84A, A85V, K92N, I97T, L104V, E105D
notes: Fully human antibody
B8: 16H12_60B4 (antibody, V domains shown)
VH: B7 VH with L4V, H6Q, R13K, G27D, S31N, A58T, A97S
VL: B6 VL with A20T, V51A, D60A, N63S, G84A, A85V, I97T, L104V, E105D
notes: Fully human antibody
B9: 4C7_63A1 (antibody, V domains shown)
VH: QVQLQESGPGLVKPSGTLSLTCAVSGGSISSSNWWSWVRQPPGKGLEAIGEIYHSGNTNYNPSLKSRVTISVDKSKNQFSLKLSSVTAADTAIYYCARDGYSSGWYWGYFDYWGQGTLVTVSS
VL: EIVMTQSPATLSVSPGERATLSCRASQSVNSNLAWYQQKPGQAPWLLIYGASTRATGIPARFSGSGSGTEFTLTISSLQSEDFAVYYCQQYNHWPYTFGQGTKLEIK
notes: Fully human antibody
B10: 13H9_44D2 (antibody, V domains shown)
VH: QVQLQESGPGLVKPSETLSLTCTVSGGSISSYYWSWIRQPPGKGLEWIGYIYYSGSTNNNPSLKSRVTISVDTSKNQFSLKLISVTAADTAVYYCARVYNNYDWGFDYWGQGTLVTVSS
VL: B9 VL with N30S, W45R, S76R, N92H, H93N, Y96L, Q100G
notes: Fully human antibody
B11: 7C8 (antibody, V domains shown)
VH: QVQLQESGPGLVKPSETLSLTCAVSGYSISSGYYWGWIRQPPGKGLEWIGSIYHSGTTYYNPSLKSRVTISVDTSKNQFSLKLNSVTAADTAVYYCATYSSGWYFYFDYWGQGTLVTVSS
VL: DIQLTQSPSFLSASVGDRVTITCRASQGISSYLAWYQQKPGKAPKLLIYVASTLQSGVPSRFSGSGSGTEFTLTISSLQPEDFATYYCQQLNSYPITFGQGTRLEIK
notes: Fully human antibody; also called VTCN1 antibody 7C8

Biological target: T1, recombinant human VTCN1-his protein (human, UniProt Q7Z7D3 25-259, limits assumed)
T1 construct: also called human VTCN1 protein; recombinant VTCN1
T1 sequence: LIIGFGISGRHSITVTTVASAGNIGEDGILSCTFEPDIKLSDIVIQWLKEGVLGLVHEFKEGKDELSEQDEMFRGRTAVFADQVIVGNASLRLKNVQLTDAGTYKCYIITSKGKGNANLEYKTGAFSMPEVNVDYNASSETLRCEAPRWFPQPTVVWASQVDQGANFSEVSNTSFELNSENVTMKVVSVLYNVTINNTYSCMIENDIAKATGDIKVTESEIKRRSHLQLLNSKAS
Experiment: BLI (OCTET), human VTCN1 protein

Point of comparison: B3, Kd 27 nM. Against it:
- B1 — within 1.5-fold, 28 nM
- B2 — within 1.5-fold, 36 nM
- B4 — within 1.5-fold, 36 nM
- B5 — 1.6-fold higher, 44 nM

Biological target: T1, recombinant human VTCN1-his protein
Experiment: BLI (OCTET), human VTCN1 protein
Remark: another data set of the same source

Point of comparison: B7, Kd 5 nM. Against it:
- B6 — 2.5-fold lower, 2 nM
- B8 — 7.1-fold lower, 0.7 nM
- B9 — 9.8-fold higher, 49 nM
- B10 — 26-fold higher, 128 nM

Biological target: T2, mouse VTCN1 protein (mouse, UniProt Q7TSP5 25-257, limits assumed)
T2 construct: The construct and its tag are not described
T2 sequence (looked up): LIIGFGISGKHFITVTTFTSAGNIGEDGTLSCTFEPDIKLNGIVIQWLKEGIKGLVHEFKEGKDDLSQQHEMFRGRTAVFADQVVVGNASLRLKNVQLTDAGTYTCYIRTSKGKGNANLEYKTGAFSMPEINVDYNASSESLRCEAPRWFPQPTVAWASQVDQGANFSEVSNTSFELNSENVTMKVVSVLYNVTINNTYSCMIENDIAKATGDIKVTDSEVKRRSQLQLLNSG
Experiment: BLI (OCTET), mouse VTCN1 protein

Point of comparison: B9, Kd 44 nM. Against it:
- B6 — within 1.5-fold, 38 nM
- B7 — within 1.5-fold, 56 nM
- B8 — 1.6-fold lower, 27 nM
- B10 — 6.1-fold higher, 268 nM

Biological target: T3, mouse VTCN1 expressed on 293 cells (mouse, UniProt Q7TSP5 25-257)
T3 construct: whole, on cells
T3 sequence (looked up): T2 sequence (looked up)
Experiment: flow cytometry on 293-VTCN1 (mouse) cells

B11: binds.

Biological target: T4, VTCN1 IgC domain only construct expressed on 293 cells (human, UniProt Q7Z7D3 150-259, limits assumed)
T4 construct: The construct lacks the IgV domain
T4 sequence: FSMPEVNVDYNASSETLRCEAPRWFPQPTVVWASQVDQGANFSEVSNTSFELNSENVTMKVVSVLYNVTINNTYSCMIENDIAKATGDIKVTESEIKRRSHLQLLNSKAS
Experiment: flow cytometry on 293-VTCN1-IgC domain cells

B11: no binding.

Biological target: T5, VTCN1 IgV domain only construct expressed on 293 cells (human, UniProt Q7Z7D3 29-149, limits assumed)
T5 construct: The construct lacks the IgC domain
T5 sequence: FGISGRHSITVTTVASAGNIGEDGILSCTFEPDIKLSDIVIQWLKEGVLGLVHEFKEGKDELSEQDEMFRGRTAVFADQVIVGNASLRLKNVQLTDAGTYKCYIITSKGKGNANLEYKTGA
Experiment: flow cytometry on 293-VTCN1-IgV domain cells

B11: no binding.

Biological target: T6, human VTCN1 expressed on cells (293-VTCN1 cells; SKBR3, MX-1 and ZR-75-1 cells that express it naturally) (human, UniProt Q7Z7D3 25-282)
T6 construct: The cDNA was bought from Origene
T6 sequence: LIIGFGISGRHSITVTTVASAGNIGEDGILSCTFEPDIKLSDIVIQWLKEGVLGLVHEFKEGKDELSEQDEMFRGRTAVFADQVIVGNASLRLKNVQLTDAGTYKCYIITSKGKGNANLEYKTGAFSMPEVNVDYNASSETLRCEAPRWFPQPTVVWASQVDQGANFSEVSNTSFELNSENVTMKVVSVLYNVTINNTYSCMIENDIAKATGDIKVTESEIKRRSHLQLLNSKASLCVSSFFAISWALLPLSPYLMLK
Experiment: flow cytometry and immunofluorescence on cells

B11: binds.

Biological target: T7, cynomolgus monkey VTCN1 protein (cynomolgus monkey, UniProt A0A2K5U6P5 25-259)
T7 construct: The construct and its tag are not described; also called cyno VTCN1
T7 sequence: T1 sequence with L53I
Experiment: BLI (OCTET), cynomolgus monkey VTCN1 protein

Point of comparison: B8, Kd 1 nM. Against it:
- B6 — 2-fold higher, 2 nM
- B7 — 5-fold higher, 5 nM
- B9 — 47-fold higher, 47 nM

Biological target: T6, human VTCN1 expressed on cells …
Experiment: flow cytometry, antibody titration on 293-huVTCN1 cells

Point of comparison: B10, EC50 1.2 nM. Against it:
- B6 — 7.5-fold higher, 9 nM
- B7 — 3.8-fold higher, 4.6 nM
- B8 — within 1.5-fold, 1.7 nM
- B9 — 1.8-fold higher, 2.1 nM

Biological target: T3, mouse VTCN1 expressed on 293 cells
Experiment: flow cytometry, antibody titration on 293-muVTCN1 cells

Point of comparison: B8, EC50 4.8 nM. Against it:
- B6 — 5.9-fold higher, 28.5 nM
- B7 — 2.4-fold higher, 11.4 nM
- B9 — within 1.5-fold, 3.5 nM
- B10 — 2.7-fold lower, 1.8 nM

Biological target: T8, cynomolgus monkey VTCN1 expressed on 293 cells (cynomolgus monkey, UniProt A0A2K5U6P5 25-282)
T8 construct: whole, on cells
T8 sequence: T6 sequence with L53I, F242L, S252A
Experiment: flow cytometry, antibody titration on 293-cynoVTCN1 cells

Point of comparison: B7, EC50 5.1 nM. Against it:
- B6 — 1.8-fold higher, 9 nM
- B8 — 2.4-fold lower, 2.1 nM
- B9 — 3-fold lower, 1.7 nM

Biological target: T6, human VTCN1 expressed on cells …
Experiment: flow cytometry, antibody titration on SKBR3 cells (endogenous VTCN1)

Point of comparison: B9, EC50 4.4 nM. Against it:
- B6 — 8.1-fold higher, 35.5 nM
- B7 — 12-fold higher, 51.4 nM
- B8 — within 1.5-fold, 4 nM
- B10 — 2.3-fold lower, 1.9 nM

Biological target: T8, cynomolgus monkey VTCN1 expressed on …
Experiment: flow cytometry of serially diluted antibody on 293-cynoVTCN1 cells, dye-labelled secondary antibody, MFI

B2 was tested, and the “EC50 (read off the curve)” value was roughly 2 nM.

Biological target: T3, mouse VTCN1 expressed on 293 cells
Experiment: flow cytometry of serially diluted antibody on 293-mouseVTCN1 cells, dye-labelled secondary antibody, MFI

B2: binds.

Biological target: T6, human VTCN1 expressed on cells …
Experiment: flow cytometry of serially diluted antibody on SKBR3 cells (natural VTCN1), dye-labelled secondary antibody, MFI

With B2 the “EC50 (read off the curve)” value was roughly 6 nM.
